Assay results from patent US20180244769A1 (Ablynx, published 2018).

Experiments:
[1] = target: human P2X7 (hP2X7) (human) (UniProt Q99572); experiment: cell-based or functional assay
mouse P2X7 (mP2X7) = target: T1, mouse P2X7 (mP2X7) (mus musculus, UniProt Q9Z1M0 1-595); experiment: flow cytometry, HEK cells co-transfected with GFP and mP2X7, detection with Alexa647 anti-mouse IgG
T1 construct: Also used here for endogenous P2X7 on Yac-1 cells, primary mouse lymphocytes and macrophages
T1 chain: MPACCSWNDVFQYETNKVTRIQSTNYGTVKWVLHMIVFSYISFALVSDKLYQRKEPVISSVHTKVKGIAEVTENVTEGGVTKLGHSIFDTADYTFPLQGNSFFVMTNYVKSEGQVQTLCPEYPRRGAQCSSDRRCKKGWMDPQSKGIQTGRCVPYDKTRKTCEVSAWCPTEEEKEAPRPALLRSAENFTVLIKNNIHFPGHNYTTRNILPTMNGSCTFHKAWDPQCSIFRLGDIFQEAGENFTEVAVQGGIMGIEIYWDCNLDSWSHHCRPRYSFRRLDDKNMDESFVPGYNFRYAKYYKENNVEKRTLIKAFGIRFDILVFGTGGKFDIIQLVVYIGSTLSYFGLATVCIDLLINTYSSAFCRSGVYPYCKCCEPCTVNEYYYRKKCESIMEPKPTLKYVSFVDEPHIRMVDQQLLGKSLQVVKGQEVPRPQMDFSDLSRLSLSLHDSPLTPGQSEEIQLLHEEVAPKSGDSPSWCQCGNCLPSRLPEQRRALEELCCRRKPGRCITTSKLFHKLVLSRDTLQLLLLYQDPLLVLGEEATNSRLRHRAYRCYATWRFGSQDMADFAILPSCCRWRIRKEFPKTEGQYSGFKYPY
Description: (§1) In order to verify the specificity of the selected Nbs and to determine whether the Nbs would bind also to mouse P2X7 or rat P2X7, HEK cells were co-transfected with expression constructs for GFP and either hP2X7, mP2X7, or rP2X7. Twenty four hours post transfection cells were stained with Nb-Fc fusion proteins or mAb L4 before FACS analyses (FIG. 3). […] By comparison, previously described Nbs 13A7 and 14D5 (WO 2010/070145) recognize mP2X7, but not hP2X7 or rP2X7, mAb L4 recognizes hP2X7 and rP2X7, but not mP2X7.

rat P2X7 (rP2X7) = target: T2, rat P2X7 (rP2X7) (Rattus norvegicus, UniProt Q64663 1-595); experiment: flow cytometry, HEK cells co-transfected with GFP and rP2X7, detection with Alexa647 anti-mouse IgG
T2 sequence: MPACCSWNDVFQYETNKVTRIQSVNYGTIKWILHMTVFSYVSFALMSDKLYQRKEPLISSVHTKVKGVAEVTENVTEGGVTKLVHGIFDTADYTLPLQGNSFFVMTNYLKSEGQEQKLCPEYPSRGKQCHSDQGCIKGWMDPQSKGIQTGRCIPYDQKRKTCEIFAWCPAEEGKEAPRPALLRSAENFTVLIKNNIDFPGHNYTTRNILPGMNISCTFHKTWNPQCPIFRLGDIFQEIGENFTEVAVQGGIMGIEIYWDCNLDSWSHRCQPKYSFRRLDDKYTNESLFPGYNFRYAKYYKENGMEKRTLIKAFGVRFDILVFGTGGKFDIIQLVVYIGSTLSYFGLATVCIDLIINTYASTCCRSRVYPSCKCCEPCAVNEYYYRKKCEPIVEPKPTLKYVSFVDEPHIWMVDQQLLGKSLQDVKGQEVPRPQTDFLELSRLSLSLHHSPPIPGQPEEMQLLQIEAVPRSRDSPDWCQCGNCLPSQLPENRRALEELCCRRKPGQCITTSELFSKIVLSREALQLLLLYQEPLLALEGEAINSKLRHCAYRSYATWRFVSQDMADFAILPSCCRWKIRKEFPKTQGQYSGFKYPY
Description: as §1

[2] = target: human P2X7 (hP2X7) (human) (UniProt Q99572); experiment: flow cytometry, HEK cells co-transfected with GFP and hP2X7, bound antibody detected with Alexa647 anti-mouse IgG; other quadrants: UL 0.7, LL 12, LR 15
[3] = target: human P2X7 (hP2X7) (human) (UniProt Q99572); experiment: flow cytometry of whole blood of one donor, gate on lymphocytes, Alexa647 conjugate with anti-CD4; unblocked = pre-incubated with control 1067-Fc
[4] = target: human P2X7 (hP2X7) (human) (UniProt Q99572); experiment: flow cytometry of whole blood of one donor, gate on lymphocytes, Alexa647 conjugate with anti-CD4; unblocked = pre-incubated with control 1067-Fc; lower quadrants 23 and 19
[5] = target: human P2X7 (hP2X7) (human) (UniProt Q99572); experiment: flow cytometry of whole blood of one donor, gate on lymphocytes, Alexa647 conjugate with anti-CD4; blocked = pre-incubated with excess unlabelled Nb-Fc (legend: 3 ug each of 1c113-Fc and 3c23-Fc); lower quadrants 44 and 55
[6] = target: human P2X7 (hP2X7) (human) (UniProt Q99572); experiment: flow cytometry, HEK cells co-transfected with GFP and hP2X7, bound antibody detected with Alexa647 anti-mouse IgG; other quadrants: UL 1.5, LL 16, LR 11
[7] = target: human P2X7 (hP2X7) (human) (UniProt Q99572); experiment: flow cytometry of whole blood of one donor, gate on lymphocytes, Alexa647 conjugate with anti-CD4; unblocked = pre-incubated with control 1067-Fc; lower quadrants 24 and 19
[8] = target: human P2X7 (hP2X7) (human) (UniProt Q99572); experiment: flow cytometry of whole blood of one donor, gate on lymphocytes, Alexa647 conjugate with anti-CD4; blocked = pre-incubated with excess unlabelled Nb-Fc (legend: 3 ug each of 1c113-Fc and 3c23-Fc); lower quadrants 44 and 54
[9] = target: human P2X7 (hP2X7) (human) (UniProt Q99572); experiment: flow cytometry, HEK cells co-transfected with GFP and hP2X7, bound antibody detected with Alexa647 anti-mouse IgG; other quadrants: UL 0.8, LL 12, LR 15
[10] = target: human P2X7 (hP2X7) (human) (UniProt Q99572); experiment: flow cytometry, HEK cells co-transfected with GFP and hP2X7, bound antibody detected with Alexa647 anti-mouse IgG; other quadrants: UL 72, LL 26, LR 0.5
[11] = target: human P2X7 (hP2X7) (human) (UniProt Q99572); experiment: flow cytometry, HEK cells co-transfected with GFP and hP2X7, bound antibody detected with Alexa647 anti-mouse IgG; other quadrants: UL 71, LL 27, LR 0.5

Sequence of human P2X7 (hP2X7) (human) (Q99572 whole entry): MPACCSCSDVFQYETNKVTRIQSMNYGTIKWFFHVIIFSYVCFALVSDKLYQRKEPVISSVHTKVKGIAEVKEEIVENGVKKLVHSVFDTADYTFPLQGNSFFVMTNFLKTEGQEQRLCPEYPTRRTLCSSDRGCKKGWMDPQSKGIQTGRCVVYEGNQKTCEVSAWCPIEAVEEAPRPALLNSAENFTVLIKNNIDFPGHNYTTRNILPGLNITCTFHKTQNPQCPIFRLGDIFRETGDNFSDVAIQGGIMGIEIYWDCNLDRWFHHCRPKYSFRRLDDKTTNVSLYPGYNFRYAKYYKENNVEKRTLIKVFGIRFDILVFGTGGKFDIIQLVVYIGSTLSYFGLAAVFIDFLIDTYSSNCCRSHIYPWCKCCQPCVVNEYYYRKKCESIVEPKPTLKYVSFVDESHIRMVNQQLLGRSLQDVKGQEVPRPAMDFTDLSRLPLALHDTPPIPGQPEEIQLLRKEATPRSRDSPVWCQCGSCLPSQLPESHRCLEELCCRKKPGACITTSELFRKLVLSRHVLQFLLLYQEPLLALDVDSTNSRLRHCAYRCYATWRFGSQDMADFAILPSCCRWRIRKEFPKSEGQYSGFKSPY

B1: Nb 3c23 (monovalent) (VHH)
VHH: EVQLVESGGGLVQAGGSLRLSCAASGRTFRHYAMGWFRQAPGKEREFVAAISSYGSTDYGDSVKGRFTISRDDAKNTVPLQMNSLKPEDTAVYYCAAADETLGAVPNFRLHEKYEYEYWGQGTQVTVSS
IC50 [nM], blockade of L-selectin (CD62L) shedding in transfected HEK cells, 4 mM ATP [1]: 2.7 nM | IC50 [ng/ml], blockade of L-selectin (CD62L) shedding in transfected HEK cells, 4 mM ATP [1]: 40 ng/mL

B2: 3c23-Fc (Nb 3c23 fused to the Fc-domain of mouse IgG1) (Fc fusion)
chain: EVQLVESGGGLVQAGGSLRLSCAASGRTFRHYAMGWFRQAPGKEREFVAAISSYGSTDYGDSVKGRFTISRDDAKNTVPLQMNSLKPEDTAVYYCAAADETLGAVPNFRLHEKYEYEYWGQGTQVTVSSA
notes: Bivalent N-terminally FLAG-tagged Nb-Fc fusion protein made in HEK cells; Used unconjugated or conjugated to Alexa647; also called WD3c23Fc; Nb 3c23-Fc; not shown: N-terminal FLAG tag; Fc-domain of mouse IgG1
IC50 [nM], blockade of L-selectin (CD62L) shedding in transfected HEK cells, 4 mM ATP [1]: 0.6 nM | IC50 [ng/ml], blockade of L-selectin (CD62L) shedding in transfected HEK cells, 4 mM ATP [1]: 50 ng/mL | fold enhanced potency to block activation of P2X7, Nb-Fc fusion protein against its monovalent counterpart [1]: 5 to 20 fold | molar inhibition potency relative to monovalent 3c23 (CD62L shedding) [1]: 4 fold | binding result (mouse P2X7 (mP2X7)): no binding | binding result (rat P2X7 (rP2X7)): no binding | % of cells in the GFP+ / anti-mIgG A647+ quadrant (upper right) [2]: 72% | MFI (AF647) of CD4+ lymphocytes, unblocked [3]: 17 | MFI (AF647) of CD4- lymphocytes, unblocked [3]: 14 | % of lymphocytes in the CD4+ / AF647+ quadrant (upper right), unblocked [4]: 35% | % of lymphocytes in the CD4- / AF647+ quadrant (upper left), unblocked [4]: 24% | % of lymphocytes in the CD4+ / AF647+ quadrant (upper right), blocked [5]: 0.4% | % of lymphocytes in the CD4- / AF647+ quadrant (upper left), blocked [5]: 0.7%

B3: Nb 1c81 (monovalent) (VHH)
VHH: EVQLVESGGKLVQAGGSLRLSCSASGRTFSFSTSTMGWFRQAPGKELEFVAAIDWSDFNTYYADSVKGRFTISRHNPRNSVYLQLNSLKPEDTAVYYCAAHSETRGGTRYFDRPSLYNYWGQGTQVTVSS
IC50 [nM], blockade of L-selectin (CD62L) shedding in transfected HEK cells, 4 mM ATP [1]: 100 nM | IC50 [ng/ml], blockade of L-selectin (CD62L) shedding in transfected HEK cells, 4 mM ATP [1]: 1500 ng/mL

B4: 1c81-Fc (Nb 1c81 fused to the Fc-domain of mouse IgG1) (Fc fusion, not shown: small tags and cut ends; a dimerising Fc or GST)
chain: EVQLVESGGKLVQAGGSLRLSCSASGRTFSFSTSTMGWFRQAPGKELEFVAAIDWSDFNTYYADSVKGRFTISRHNPRNSVYLQLNSLKPEDTAVYYCAAHSETRGGTRYFDRPSLYNYWGQGTQVTVSSA
% of cells in the GFP+ / anti-mIgG A647+ quadrant (upper right) [6]: 71% | IC50 [nM], blockade of L-selectin (CD62L) shedding in transfected HEK cells, 4 mM ATP [1]: 5 nM | IC50 [ng/ml], blockade of L-selectin (CD62L) shedding in transfected HEK cells, 4 mM ATP [1]: 400 ng/mL | fold enhanced potency to block activation of P2X7, Nb-Fc fusion protein against its monovalent counterpart [1]: 5 to 20 fold | molar inhibition potency relative to monovalent 1c81 (CD62L shedding) [1]: 20 fold

B5: Nb 1c113 (monovalent) (VHH)
VHH: EVQLVESGGGLVQPGGSLTLSCAASGIAFNYYSMSWHRQAPGKQRTLVADISPGGHTEYEDSVKGRFTISRDNFKNTMTLHMNSLKPEDTAVYFCAARLRFEVSSNYWGQGTQVTVSS
IC50 [nM], blockade of L-selectin (CD62L) shedding in transfected HEK cells, 4 mM ATP [1]: > 185 nM | IC50 [ng/ml], blockade of L-selectin (CD62L) shedding in transfected HEK cells, 4 mM ATP [1]: > 2800 ng/mL

B6: 1c113-Fc (pME 1c113-mIgG1Fc_LSF) (Fc fusion)
chain: DYKDDDDKRSMAEVQLVESGGGLVQPGGSLTLSCAASGIAFNYYSMSWHRQAPGKQRTLVADISPGGHTEYEDSVKGRFTISRDNFKNTMTLHMNSLKPEDTAVYFCAARLRFEVSSNYWGQGTQVTVSSLEPRDCGCKPCICTVPEVSSEVSSVFIFPPKPKDVLLISLFPKVTCVVVDISKDDPEVQFSWFVDDVEVHTAQTQPREEQFNSTFRSVSELPIMHQDWLNGKEFKCRVNSAAFPAPIEKTISKTKGRPKAPQVYTIPPPKEQMAKDKVSLTCMITDFFPEDITVEWQWNGQPAENYKNTQPIMDTDGSYFVYSKLNVQKSNWEAGNTFTCSVLHEGLHNHHTEKSLSHSPGKGK
notes: Used unconjugated or conjugated to Alexa647; also called WD1c113Fc; Nb 1c113-Fc
% of lymphocytes in the CD4+ / AF647+ quadrant (upper right), unblocked [7]: 35% | % of lymphocytes in the CD4- / AF647+ quadrant (upper left), unblocked [7]: 22% | IC50 [nM], blockade of L-selectin (CD62L) shedding in transfected HEK cells, 4 mM ATP [1]: > 35 nM | IC50 [ng/ml], blockade of L-selectin (CD62L) shedding in transfected HEK cells, 4 mM ATP [1]: > 2800 ng/mL | binding result (mouse P2X7 (mP2X7)): no binding | binding result (rat P2X7 (rP2X7)): no binding | MFI (AF647) of CD4+ lymphocytes, unblocked [3]: 17 | MFI (AF647) of CD4- lymphocytes, unblocked [3]: 14 | % of lymphocytes in the CD4+ / AF647+ quadrant (upper right), blocked [8]: 0.7% | % of lymphocytes in the CD4- / AF647+ quadrant (upper left), blocked [8]: 0.8% | % of cells in the GFP+ / anti-mIgG A647+ quadrant (upper right) [9]: 72%

B7: 14D5-Fc (Nb-Fc fusion protein of Nb 14D5) (Fc fusion)
chain: KVQLVESGGGLVQAGGSLRLSCAASGSPISSYAMGWYRQAPGKPRELVARIYTGGTAWYEDSVKGRFTISRDNAQNTVYLQMNSLKSEDTAVYYCHGRVRYDYWGQGTQVTVSS
notes: Nb-Fc fusion; not shown: Fc part
% of cells in the GFP+ / anti-mIgG A647+ quadrant (upper right) [10]: 1.2% | binding result (rat P2X7 (rP2X7)): no binding

B8: 13A7-Fc (Nb-Fc fusion protein of Nb 13A7) (Fc fusion)
chain: EVQLVESGGGLVQPGESLRLSCTASRFMLDYYDIGWFRQAPGKEREGVSCRFTNDGSTAYADSVKGRFTISRDIVKHTVYLQMNSLQPEDTAVYYCAAGPLTKRRQCVPGDFSMDFWGEGTLVTVSS
notes: Nb-Fc fusion; also called fluorochrome-conjugated Nb 13A7; not shown: Fc part
binding result (rat P2X7 (rP2X7)): no binding | % of cells in the GFP+ / anti-mIgG A647+ quadrant (upper right) [11]: 1.2%
